Measurements taken from patent publication US20250326867A1, “De novo designed chlorophyll special pair proteins” (University of Washington, priority 2024, published 2025).

B1: JD (designed binder)
chain: SGSSDEEYARMSAELAEEAAKEALEQAKREGDEDARRVAEELEKQAEEARRKKDFDLANLVLMAAIILLLALIILELAKKAGNEQMEASGLSLLATAALLAAAGGENSEDARKALEAALRLAERATEVLEKIAKKGETALEKAIAAGTLVMLIQIIIQIAELLSKLGDTEEAKKVLDIAIELIKRVTEILERIAKKADTDILAQAAAGHLIYLIQLLMQISILLRRLGNIDEAFKVLEEARELAERVRELLERIAKNSDK
notes: Designed homodimer subunit, after TEV cleavage
B2: JE (designed binder)
chain: SGSGSSDELAALFLIISAKSQAWQAQSAAERTGDPRVRELARELKRLAQEAAEEVKRDPSSSEVNKNLQLISMAIALAVLALQLARKAGDEEARDIAREAVEVAVRAAQLILEGRDEQRAQTLFLIAHALLMAVMAARLGNSEVAELAVKVLRLAKELEKLLPSEIALFVVLMIALAALSAAMAASGGQEDYARDALRRLEEAIREAEENRSKESLEKVIEEAIEAMLQANRAQTGG
notes: as for B1
B3: SP2: de novo designed chlorophyll special pair protein, C2 homodimer (protein)
chain: SGSGSSDEEFKFLATEAKMLITAAERLAGTDPELQEMVALIKKELEQAERTFRNGDKSEAQRQLEFVLTAARAVMNVAAAANAAGTDPELIEMVLRILKQLKEAIRTFQNGDQEEAETQLRFVLRAAIAVAVVAAALVLAGTDPELQEMVKQILEELKQAIETFARGDKEKALTQLLFVAWAAHAVAMIAAAANLAGTDPRLQQQVKEILEKLKEAIETFQKGDEEQAFRQLAEVLAEAALVALRAALTN
modifications: homodimer; VARIANT 1..6 optionally absent; VARIANT 33 optionally absent; VARIANT 89..100 optionally absent; VARIANT 111..115 optionally absent; VARIANT 151..169 optionally absent; VARIANT 197..199 optionally absent
notes: de novo designed chlorophyll special pair protein, C2 homodimer
B4: SP3: de novo designed chlorophyll special pair protein, C2 homodimer (protein)
chain: SGSSEELARESAEAAWRLAQAGTRLMLAWIRGDLKEIAEALIELARAVQELARVAKEYGNDELAKTAALLAAHVAMLAILVLIRAIKEGDDEVRELAKTAIKLASTAAKIVLDALPTAEEVRQITLLAKLAEEAADKKNEDSALAVGIAAAAVLLALLALEAAQKAGIEEAEKGARLLLKLAMDAARKKNPEEALAVFNAALDVSIALKLLQSAKRAGSEETRKLAEEMLRQALERARK
modifications: homodimer; VARIANT 1..4 optionally absent
notes: as for B3
B5: SP1: de novo designed chlorophyll special pair protein, C2 homodimer (protein)
chain: GGDSRELIARYQILLAELAAIRADIAAERTGDPYVRKLARELKRLAQEAAEEVKRDPSSSDVNMALLLILLMIELAVRALEAAERTGDPEVRELAAELVWLAVEAAEEVQRNPSSSDVWLALHLIMLAIWAAVAALEAAERTGDPEVRELARELVRLAVEAAEEVQRNPSSKEVYMALLLILIAILEAVLSLLRAERSGDPEKREKARERVREAVERAEEVQR
modifications: homodimer; VARIANT 1..2 optionally absent
notes: as for B3

Assays:
[1] = molecular target: the molecule itself; assay: size-exclusion chromatography, self-association (homodimer)
Procedure: FIG. 7. Size exclusion chromatography (SEC) traces of purified SP apo-proteins. Proteins were injected as 0.5 mL aliquots onto a Superdex™ 200 Increase 10/300 GL column (Cytiva Life Sciences). The narrow, isolated peaks indicate that the samples contain monodisperse protein. Running buffer was 150 mM NaCl, 10 mM Tris at pH 8. Proteins were purified by Ni-NTA and one round of SEC prior to collecting the data shown.
Proteins were purified by Ni-NTA and size-exclusion chromatography (SEC) (FIG. 7). […] A slightly lower predicted radius of gyration (Rg) value compared to experimental SAXS data is likely due to a dense hydration shell around the highly charged SP proteins (Svergun et al. 1998; Kim et al. 2016). The far ultraviolet (UV) circular dichroism (CD) spectra of three SP proteins that expressed in high yield (≥140 mg/L) show the proteins are highly α-helical with and without the synthetic Chl a derivative, Zn pheophorbide a methyl ester (ZnPPaM). Thermal denaturation curves monitored by the CD signal at 222 nm indicate that all three proteins are highly thermostable in the apo- and holo-states (FIG. 2).

[2] = ZnPPaM binding titration monitored by UV/vis absorbance; conditions: absorption titration
Procedure: FIG. 9. SP2-ZnPPaM binding titration monitored by UV/vis absorbance. (a) UV/vis titration of ZnPPaM into a solution of 20 μM SP2 dimer ([…] of SP2 monomer) in 150 mM NaCl, and 10 mM Tris at pH 8. Samples were prepared separately with 0.25 to 4 equivalents (eq.) of ZnPPaM per SP2 protein dimer (2.0 eq. ZnPPaM would be a stoichiometric amount). The y-axis is the molar extinction coefficient, &, or OD divided by ZnPPaM concentration. ZnPPaM was added to protein samples from a DMSO stock solution. Samples were incubated overnight for 20 hours at 4° C. before measurement at room temperature. (b) The same data as in panel (a) zoomed in on the Qy region. Arrows indicate the direction & changes as a function of increasing ZnPPaM concentration. (c) Fitted spectra and (d) species concentration vs. molar ratio of ligand to protein from fitting of the absorbance spectra in panels (a) and (b). During fitting, only the P+L→PL and PL+L→PL2 reactions were considered, and ZnPPaM aggregation was disregarded. (P represents SP2 dimer protein and L represents ZnPPaM ligand). Curve fitting gives dissociation constants (KDs) of 110 nM and 2.0 μM for KD1 and KD2, respectively. Fittings were performed with an algorithm that combines singular value decomposition and least squares regression, as implemented in ReactLab™ Equilibria. (e) Full spectra and (f) the Qy region of a second titration with SP2 dimer protein concentration held at 2.0 μM. At 2.0 μM protein, the intensities of the spectral features at 669 and 692 nm depend upon the molar ratio of protein to ZnPPaM in a manner similar to the 20 μM protein titration shown in panels (a) and (b).
(§1) At longer wavelengths in the UV/visible/near-infrared (UV/vis/NIR), CD spectra can serve as a convenient probe of excitonic interactions between Chls. […] When Chl dimers are arranged in chiral protein environments, however, excitonic interactions can produce delocalized transitions with chiral character, yielding CD signals that are stronger and conservative (i.e., composed of a bisignate doublet that integrates to zero). […] Curve fitting of the CD titrations yields SP2-ZnPPaM dissociation constants (KDs) of 300 nM for KD1 and 2.5 μM for KD2, and SP3-ZnPPaM KDs of 800 nM for KD1 and 1.0 μM for KD2 (data not shown). Due to the lower CD signal of the SP1-ZnPPaM complex, we instead used absorbance and fluorescence to measure the SP1-ZnPPaM interaction. Absorption titrations yielded curve fits with KD1 and KD2 values of 290 nM and 430 nM for SP1, 110 nM and 2.0 μM for SP2, and 350 nM and 940 nM for SP3, respectively (FIG. 9).
Protein-chlorophyll sample preparation: Zn pheophorbide a methyl ester (ZnPPaM) was purchased from Frontier Scientific, Inc. ZnPPaM stock solutions were prepared in dimethyl sulfoxide (DMSO) or methanol to concentrations between 200 μM and 1 mM. ZnPPaM concentrations were determined using mass measurements and by using the known absorptivity of Zn pheophytin a, which has a similar absorbance spectrum and an extinction coefficient €659 nm of 77,300 M^−1 cm^−1 in 80% acetone/20% deionized water (Jones et al. 1976). Ultraviolet/visible (UV/vis) absorbance spectra were collected using a V-750 spectrophotometer with a 1 nm bandwidth and 400 nm/min scanning speed. Protein-ZnPPaM complexes were prepared by slowly adding freshly-prepared ZnPPaM stock solution to protein solution in aqueous buffer at room temperature and incubating samples for several hours. Unbound ZnPPaM was removed by centrifugation to pellet precipitated ZnPPaM, sterile filtration using a 0.22 μm syringe filter, and/or running a PD-10 desalting column purification (Sephadex™ G-25 M resin, Cytiva Life Sciences).

[3] = ZnPPaM binding titration monitored by CD in the Qy region; conditions: curve fitting
Excerpt: as §1
Circular Dichroism (CD) spectroscopy: CD spectra were collected using a J-1500 spectrophotometer. For protein secondary structure assays, spectra were measured on samples of 0.2-0.4 mg/mL protein in 1 mm quartz cuvettes from 260 to 190 nm with a 1 nm bandwidth, 1 nm data interval, data integration time (DIT) of 1 second, and scanning speed of 50 nm/min. Thermal melts were monitored at 222 nm from 2 to 98° C. with a 2 nm bandwidth and 8 second DIT. UV/vis/near-infrared (NIR) CD transitions of protein-bound Chls were examined in the 800-300 nm region in 1 cm quartz cuvettes as averages of 10 scans using a 3 nm bandwidth, 1 nm data interval, DIT of 4 seconds, and scanning speed of 50 nm/min unless otherwise noted. UV/vis/NIR CD spectra shown in FIG. 2 were collected after sterile filtering with 0.22 μm filter and PD-10 desalting column purification (Sephadex™ G-25 M resin, Cytiva Life Sciences). Each spectrum represents the average of two independent sample preparations. Samples contained 8-15 μM protein (monomer concentration) with equimolar ZnPPaM, 150 mM NaCl, and 10 mM Tris buffer at pH 8. ZnPPaM dry powder was dissolved in methanol stock solutions immediately before adding to protein solutions. Samples were allowed to incubate for 8-16 hours at room temperature prior to measuring spectra.

[4] = ZnPPaM fluorescence titration, 1:1 binding model; conditions: 1:1 binding model of protein monomer to ZnPPaM, approximates average of KD1 and KD2, read-out: KD estimate
Excerpt: as §1

[5] = P+L→PL, 150 mM NaCl, 10 mM Tris pH 8, read-out: dissociation constant KD1
[6] = first ZnPPaM binding (data not shown), read-out: dissociation constant KD1
[7] = second ZnPPaM binding (data not shown), read-out: dissociation constant KD2
[8] = PL+L→PL2, read-out: dissociation constant KD2

Molecule | binding result [1] | Kd [2, 5] | Kd ([2]; PL+L→PL2, 150 mM NaCl, 10 mM Tris pH 8, read-out: dissociation constant KD2) | Kd [3, 6] | Kd [3, 7] | Kd [4] | Kd [2, 8]
B1 | binds |  |  |  |  |  | 
B2 | binds |  |  |  |  |  | 
B3 |  | 110 nM | 2000 nM | 300 nM | 2500 nM | 480 nM | 
B4 |  | 350 nM |  | 800 nM | 1000 nM | 120 nM | 940 nM
B5 |  | 290 nM |  |  |  | 660 nM | 430 nM
